Where a name gives a salt, the structure may show the parent alone.
Legend:
HSA = HSA (Homo sapiens, UniProt P02768); test: Association constants of Bchl-Ds to HSA (spectroscopic titration); assay type: binding; conditions: for HSA association constant Ka(HSA): 1:1 non-covalent complex with HSA
Text: Association constants of Bchl-Ds to HSA were deduced from spectroscopic measurements of the ratio between Bchl-Ds and HSA for different concentrations of HSA using both factor analysis, as previously described and by monitoring changes in the near infrared (NIR) absorption of the Bchl-Ds during titration with HSA. Briefly, all four Bchl-Ds present broad NIR absorption with reduced intensity in SA-free aqueous solutions. Upon addition of SA, they form 1:1 complexes with the added protein ((Bchl-D)/SA) with strong and narrow NIR absorption bands. The narrow-band absorption is proportional to the ((Bchl-D)/SA) concentration enabling calculation of the association constant Ka through the following equation: [drawing 1]
Where [SA]0 is the analytical concentration of the added SA and [(Bchl-D/SA)] is the concentration of the Bchl-D complex with SA calculated from the spectral changes.

[1] = Biodistribution studies (tissue extraction, fluorescence); assay type: in vivo, CD-1 nude female mice
Procedure: Anaesthetized mice were i.v. injected with 15 mg/kg STL-6014 (n = 27) or 9 mg/kg STL-7012 (n = 15). At each indicated time point, three animals were sacrificed and blood, kidney, liver and tumor tissues were collected into pre-weighed vials and frozen at -20°C. Tissue samples were homogenized in methanol (100 mg tissue/ml) and extracted the next morning by centrifugation (13,000 × g five minutes) at room temperature. Supernatants were diluted in methanol by a factor of two and drug concentration was determined by fluorescence measurements (Varian - Cary Eclipse spectrofluorimeter, Palo Alto, California, USA) at 750 nm (peak values). Drug concentrations were interpolated from a fluorescence calibration curve, based on predetermined drug concentrations using absorption spectroscopy.

MDA-MB-231-RFP tumors [2] = test: Whole-body fluorescence imaging of drug accumulation and clearance in tumors; conditions: large necrotic tumors, 9 mg/kg i.v., from one hour post injection
Procedure: (§1) Mammary fat pads (left, bottom nipple) of female mice were inoculated with harvested MDA-MB-231-RFP human breast cancer cells (4 × 10^6 in 100 μl saline). Tumors were classified as 'small' (≤100 mm^3) at one to two weeks from time of cell injection, or 'large' after three to four weeks (necrotic tumors, 250 to 500 mm^3). To avoid tumor burden, mice were sacrificed (cervical dislocation) when tumor size reached 10% of body weight or at 90 days post-implantation. External caliper measurements, length (L), width (W) and depth (D) were used to calculate in vivo tumor volume according to the formula: V = L/2 · W/2 · D/2 · π · 4/3 [46].
(§2) The in Vivo Optical Imaging System (IVIS®100/XFO-12, Xenogen Corp., Alameda, CA, USA) was used to acquire fluorescent images of the RFP-expressing tumors, as well as Bchl-D compounds associated with tissues and organs after their intravenous (i.v.) infusion to the tested animals. The field of view was 15 cm. RFP fluorescence, in units of photons/sec, was detected using 525/50 nm and 612/75 nm filter sets for excitation and emission, respectively, with one second integration time. NIR fluorescence of the different Bchl-Ds, in units of photons/sec, was detected using 680/30 nm and 847/75 nm filter sets for excitation and emission, respectively, at an integration time of five seconds. Background fluorescence for all quantitative analyses was calculated by recording the average fluorescence (photons/sec)/cm^2 from three animals in three different areas around and within the tumor of untreated animals provided with a similar diet for three days before measurements.
(§3) Drug accumulation was determined following i.v. administration of molar equivalents of the Bchl-D moiety to the tail vein of mice fed with a chlorophyll-free, purified diet (Harlan Teklad, Harlan Laboratories, Indianapolis, IN, USA) for three days before administration (in order to reduce skin and food autofluorescence). Before imaging, mice were anesthetized by intraperitoneum injection of a 30 μl mixture of 85:15 ketamine:xylazine.
(§4) Xenogen Living Image Software (Xenogen Corp., Alameda, CA, USA) was used for sequential fluorescent image acquisition [see Additional file 1] and superimposition of photographic images of mice and color-coded fluorescent images.

αVβ3 integrin receptors = test system: αVβ3 integrin receptors; design: method as in PMID 16309948; conditions: cited from earlier work
[3] = design: method as in PMID 11216533; conditions: cited from earlier work
MDA-MB-231-RFP tumors [4] = test: In vivo competition between STL-6014 and free c(RGDfK); design: species or system CD-1 nude female mice
Procedure: STL-6014 (140 nmol, 7.5 mg/kg) was i.v. injected to the tail vein of mice one hour after being pre-injected with an excess (8.5 μmol) of c(RGDfK) free peptide. Whole-body fluorescence images were recorded up to 24 hours post-STL-6014 injection (IVIS®, Xenogen Corp., Alameda, CA, USA) with the respective filter settings, described above.

[5] = test system: large MDA-MB-231-RFP tumors; test: Fluorescence imaging of dissected tumors (spatial distribution); assay type: in vivo, CD-1 nude female mice; conditions: 15 mg/kg i.v.
MDA-MB-231-RFP tumors [6] = conditions: mouse, in vivo
Procedure: as §1, §2, §3, §4

in vivo = conditions: female, CD-1 nude, mouse
Procedure: as §1, §2, §3, §4

primary xenografts = conditions: circulates as non-covalent complex with SA; cited from earlier work
[7] = 48 to 72 hours post-administration

HSA, sequence (P02768 25-609): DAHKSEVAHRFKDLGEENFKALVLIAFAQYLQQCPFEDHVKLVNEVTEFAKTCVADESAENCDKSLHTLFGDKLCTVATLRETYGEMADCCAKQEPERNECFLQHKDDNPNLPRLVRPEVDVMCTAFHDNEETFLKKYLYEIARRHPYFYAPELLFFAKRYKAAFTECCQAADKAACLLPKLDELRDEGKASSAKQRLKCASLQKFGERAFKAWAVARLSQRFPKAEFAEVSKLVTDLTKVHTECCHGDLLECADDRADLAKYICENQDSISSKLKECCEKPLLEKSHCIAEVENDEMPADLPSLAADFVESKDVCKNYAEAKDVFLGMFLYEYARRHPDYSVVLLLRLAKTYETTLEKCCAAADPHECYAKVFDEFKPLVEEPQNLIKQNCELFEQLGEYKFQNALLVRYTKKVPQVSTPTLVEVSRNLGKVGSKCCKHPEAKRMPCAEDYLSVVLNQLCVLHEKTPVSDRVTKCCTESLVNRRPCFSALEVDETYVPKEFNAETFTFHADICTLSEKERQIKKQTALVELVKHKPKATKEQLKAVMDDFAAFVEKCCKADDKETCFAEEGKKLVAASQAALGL

For `CC[C@H]1c2cc3[nH]c(c(CC(=O)OC)c4nc(cc5[nH]c(cc(n2)[C@@H]1C)c(C(C)=O)c5C)[C@@H](C)[C@@H]4CCC(=O)O)c(C(=O)NCCS(=O)(=O)[O-])c3C.[K+]` [STL-7012, 3^1-oxo-15-methoxycarbonylmethyl-Rhodobacteriochlorin 13^1-(2-sulfoethyl)amide dipotassium salt], which “HSA association constant Ka(HSA)” value (HSA) is on record?
The value was 0.44 ± 0.09 µM⁻¹.

What about the “accumulation in tumor, fluorescence of tissue extracts” value ([1]; 9 mg/kg i.v., any time longer than one hour post administration) of the same compound?
Its value is “no STL-7012 accumulation in the tumor”.

What about the “tumor fluorescence in whole-body imaging” value (MDA-MB-231-RFP tumors [2]) of the same compound?
Its value is “No specific tumor fluorescence”.

What does the source list for Cyclo-Arg-Gly-Asp-D-Phe-Lys [c(RGDfK)]?
Ka, association of c(RGDfK) moiety with αVβ3 integrin receptors (αVβ3 integrin receptors): about 10^9 M^-1; half life in a similar animal model [3]: minutes

Which results are given for `CC[C@H]1c2cc3[nH]c(c(CC(=O)OC)c4nc(cc5[nH]c(cc(n2)[C@@H]1C)c(C(C)=O)c5C)[C@@H](C)[C@@H]4CCC(=O)NCCCC[C@@H]1NC(=O)[C@@H](Cc2ccccc2)NC(=O)[C@H](CC(=O)O)NC(=O)CNC(=O)[C@H](CCCNC(=N)N)NC1=O)c(C(=O)NCCS(=O)(=O)O)c3C` [STL-6014, 3^1-oxo-15-methoxycarbonylmethyl-Rhodobacteriochlorin 13^1-(2-sulfoethyl)amide-17^3-c(RGDfK)amide potassium salt]?
Kd (HSA; as restated in discussion, read-out: Ka, association with SA (converted)): 8.33 µM; t1/2 of hepatic clearance ([1]; 15 mg/kg i.v.): about four; time to clear to nearly background levels in normal tissues ([1]; 15 mg/kg i.v.): less than 72 hours; tumor level relative to blood [1, 7]: about two orders of magnitude; tumor level relative to kidney, liver, intestines, lung and skin [1, 7]: about two; tumor level relative to spleen, heart, brain, fat and muscle ([1]; 48 to 72 hours post-administration, data not shown): about 10 fold; time of peak levels in normal tissues post-injection ([1]; blood, liver, kidney, 15 mg/kg i.v.): less than five; time of peak concentration in tumors post-injection ([1]; large tumors, 15 mg/kg i.v.): eight; peak concentration in tumors ([1]; large tumors, 15 mg/kg i.v., eight hours post-injection): 11 μg drug/gr tumor tissue; peak tumor level as share of the initial drug dose ([1]; large tumors, eight hours post-injection): about 3.0%; STL-6014 uptake and accumulation after pre-administration of free c(RGDfK) (MDA-MB-231-RFP tumors [4]; large tumors, data not shown): not affected; STL-6014 tumor fluorescence after pre-injection of free c(RGDfK) (MDA-MB-231-RFP tumors [4]; small tumors, 7.5 mg/kg (140 nmol) i.v. one hour after 61-fold molar excess c(RGDfK)): almost no STL-6014 fluorescence was detected in the tumor; location of fluorescence signal in dissected tumor ([5]; beyond 16 hours post-injection): only observed in the necrotic domain; location of fluorescence signal in dissected tumor ([5]; four hours post injection): within the viable tumor region alone; time to full clearance from tumor (MDA-MB-231-RFP tumors [6]): less than two; tumor half lifetime (T1/2) (MDA-MB-231-RFP tumors [6]): in the range of days; clearance from small tumors relative to large tumors (faster) (MDA-MB-231-RFP tumors [6]; iv, 15 mg/kg): more than 10 fold; persistence of tumor fluorescence (MDA-MB-231-RFP tumors [6]; iv, 15 mg/kg): still detectable at nine days; t^1_1/2 of tumor fluorescence, bi-exponential decay (MDA-MB-231-RFP tumors [6]; iv, 15 mg/kg): 12.0 ± 3.5 h; t^2_1/2 of tumor fluorescence, bi-exponential decay (MDA-MB-231-RFP tumors [6]; iv, 15 mg/kg): 210.0 ± 86.0 h; time for tumor fluorescence to return to background values (MDA-MB-231-RFP tumors [6]; iv, 15 mg/kg): ≤ 48 h; time of peak tumor fluorescence after administration (MDA-MB-231-RFP tumors [6]; iv, 15 mg/kg): six to eight; Tmax (in vivo): 48 to 72 h; half-life (in vivo; iv, 15 mg/kg, t1/2 of tumor fluorescence, mono-exponential decay): 14 ± 1.5 h

With `CC[C@H]1c2cc3[n-]c(c(CC(=O)OC)c4nc(cc5[n-]c(cc(n2)[C@@H]1C)c(C(C)=O)c5C)[C@@H](C)[C@@H]4CCC(=O)[O-])c(C(=O)NCCS(=O)(=O)[O-])c3C.[H+].[H+].[Pd+2]` [WST11] as the compound, how does the “HSA association constant Ka(HSA)” value (HSA) read?
The value was 0.54 ± 0.07 µM⁻¹.

And the “accumulation in the tumor tissue” value (primary xenografts)?
The value was “no accumulation in the tumor tissue”.
